# Laboratory results from publication PMC11130540, “Does Acinetobacter calcoaceticus glucose dehydrogenase produce self-damaging H2O2?” (Bioscience Reports, 2024).
# Molecular target: the molecule itself
# Experiment: crystal structure; holo-sGDH (around 10 mg/ml) reconstituted with PQQ before crystallization; hanging drop vapor diffusion at 20°C, 20% (w/v) PEG 6000, 100 mM TRIS pH 8.0, with 2 mM zinc chloride (wild-type) or 200 mM lithium chloride (mutants); two monomers in the asymmetric unit
row,Protein,stoichiometry N
1,"soluble glucose dehydrogenase (sGDH) from Acinetobacter calcoaceticus, wild-type, holo form (enzyme, UniProt P13650 25-478, looked up, soluble glucose dehydrogenase (sGDH) of Acinetobacter calcoaceticus, UniProt P13650; native open reading frame on plasmid pGP492; printed number + 24 in P13650; Holo enzyme with the prosthetic group PQQ (found cleaved in the crystals) and calcium ions; No tag is named; also called sGDH WT; WT) DVPLTPSQFAKAKSENFDKKVILSNLNKPHALLWGPDNQIWLTERATGKILRVNPESGSVKTVFQVPEIVNDADGQNGLLGFAFHPDFKNNPYIYISGTFKNPKSTDKELPNQTIIRRYTYNKSTDTLEKPVDLLAGLPSSKDHQSGRLVIGPDQKIYYTIGDQGRNQLAYLFLPNQAQHTPTQQELNGKDYHTYMGKVLRLNLDGSIPKDNPSFNGVVSHIYTLGHRNPQGLAFTPNGKLLQSEQGPNSDDEINLIVKGGNYGWPNVAGYKDDSGYAYANYSAAANKSIKDLAQNGVKVAAGVPVTKESEWTGKNFVPPLKTLYTVQDTYNYNDPTCGEMTYICWPTVAPSSAYVYKGGKKAITGWENTLLVPSLKRGVIFRIKLDPTYSTTYDDAVPMFKSNNRYRDVIASPDGNVLYVLTDTAGNVQKDDGSVTNTLENPGSLIKFTYKAK",2
2,"soluble glucose dehydrogenase (sGDH) from Acinetobacter calcoaceticus, D143E/Y343F mutant, holo form (enzyme, soluble glucose dehydrogenase (sGDH) of Acinetobacter calcoaceticus, UniProt P13650, with D143E and Y343F; Holo enzyme with PQQ (found cleaved in the crystals) and calcium ions; No tag is named; also called sGDH D143E/Y343F; Y343F/D143E) DVPLTPSQFAKAKSENFDKKVILSNLNKPHALLWGPDNQIWLTERATGKILRVNPESGSVKTVFQVPEIVNDADGQNGLLGFAFHPDFKNNPYIYISGTFKNPKSTDKELPNQTIIRRYTYNKSTDTLEKPVDLLAGLPSSKEHQSGRLVIGPDQKIYYTIGDQGRNQLAYLFLPNQAQHTPTQQELNGKDYHTYMGKVLRLNLDGSIPKDNPSFNGVVSHIYTLGHRNPQGLAFTPNGKLLQSEQGPNSDDEINLIVKGGNYGWPNVAGYKDDSGYAYANYSAAANKSIKDLAQNGVKVAAGVPVTKESEWTGKNFVPPLKTLYTVQDTYNYNDPTCGEMTFICWPTVAPSSAYVYKGGKKAITGWENTLLVPSLKRGVIFRIKLDPTYSTTYDDAVPMFKSNNRYRDVIASPDGNVLYVLTDTAGNVQKDDGSVTNTLENPGSLIKFTYKAK",2
3,"soluble glucose dehydrogenase (sGDH) from Acinetobacter calcoaceticus, Y343F mutant, holo form (enzyme, soluble glucose dehydrogenase (sGDH) of Acinetobacter calcoaceticus, UniProt P13650, with Y343F; Holo enzyme with PQQ (found cleaved in the crystals) and calcium ions; No tag is named; also called sGDH Y343F; single mutant) DVPLTPSQFAKAKSENFDKKVILSNLNKPHALLWGPDNQIWLTERATGKILRVNPESGSVKTVFQVPEIVNDADGQNGLLGFAFHPDFKNNPYIYISGTFKNPKSTDKELPNQTIIRRYTYNKSTDTLEKPVDLLAGLPSSKDHQSGRLVIGPDQKIYYTIGDQGRNQLAYLFLPNQAQHTPTQQELNGKDYHTYMGKVLRLNLDGSIPKDNPSFNGVVSHIYTLGHRNPQGLAFTPNGKLLQSEQGPNSDDEINLIVKGGNYGWPNVAGYKDDSGYAYANYSAAANKSIKDLAQNGVKVAAGVPVTKESEWTGKNFVPPLKTLYTVQDTYNYNDPTCGEMTFICWPTVAPSSAYVYKGGKKAITGWENTLLVPSLKRGVIFRIKLDPTYSTTYDDAVPMFKSNNRYRDVIASPDGNVLYVLTDTAGNVQKDDGSVTNTLENPGSLIKFTYKAK",2
